Test results from publication PMC6999076, “Engineered disulfide bonds improve thermostability and activity of L‐isoleucine hydroxylase for efficient 4‐HIL production in Bacillus subtilis 168” (Engineering in Life Sciences, 2019).

Experiments:
[1] = substrate: CC[C@H](C)[C@H](N)C(=O)O; test: DNFB precolumn derivatization HPLC of 4-HIL; Michaelis-Menten fit; type: biochemical, Bacillus cereus; conditions: 20 mM alpha-KG, assay: 1 mM FeSO4, 5 mM ascorbic acid, PBS pH 7.0, 30°C
Text: (§1) DNFB precolumn derivatization HPLC of 4-HIL; Michaelis-Menten fit on L-isoleucine hydroxylase (IDO)

[2] = substrate: O=C(O)CCC(=O)C(=O)O; test: as above; type: biochemical, Bacillus cereus; conditions: 20 mM L-Ile, assay: 1 mM FeSO4, 5 mM ascorbic acid, PBS pH 7.0, 30°C
Text: as §1

B1: L-isoleucine hydroxylase (IDO) (Bacillus cereus ATCC 14579) (protein)
chain: MTFVLSKMNGFSIEEKVHEFESKGFLEISNEIFLQEEENHRLLTQAQLDYYNLEDDAYGECRARSYSRYIKYVDSPDYILDNSNDYFQSKEYNYDDGGKVRQFNSINDSFLCNPLIQNIVRFDTEFAFKTNIIDTSKDLIIGLHQVRYKATKERPSFSSPIWLHKDDEPVVFLHLMNLSNTAIGGDNLIANSPREINQFISLKEPLETLVFGQKVFHAVTPLGTECSTEAFRDILLVTFSYKETK
notes: full-length, 6xHis tag (downstream primer, C-terminal) kept; free cysteines C61, C112, C226; GenBank AE016877.1 is a whole-genome record (B. cereus ATCC 14579), not a gene record
Km [1]: 260 µM | kcat [1]: 0.84 s⁻¹ | kcat/Km [1]: 3180 M⁻¹ s⁻¹ | Km [2]: 3340 µM | kcat [2]: 0.32 s⁻¹ | kcat/Km [2]: 90 M⁻¹ s⁻¹
